{"source": "patent US20250388669A1", "about": "(published 2025)", "biological_target": "T1, CD137 (human, UniProt Q07011 24-186)", "T1 construct": "In the reporter assay it is whole, on GS-H2-huCD137 cells; also called 4-1BB; huCD137", "test": "CD137 binding, FCM or ELISA"}
{"binder": "Ly2326 (bispecific antibody, human IgG1, kappa, CD19 Fabs, terminal CD137 Fv) chain 1: QVQLQQSGAELVRPGSSVKISCKASGYAFSSYWMNWVKQRPGQGLEWIGQIWPGDGDTNYNGKFKGKATLTADESSSTAYMQLSSLASEDSAVYFCARRETTTVGRYYYAMDYWGQGTTVTVSSASTKGPSVFPLAPSSKSTSGGTAALGCLVKDYFPEPVTVSWNSGALTSGVHTFPAVLQSSGLYSLSSVVTVPSSSLGTQTYICNVNHKPSNTKVDKKVEPKSCDKTHTCPPCPAPEAAGPSVFLFPPKPKDTLMISRTPEVTCVVVDVSHEDPEVKFNWYVDGVEVHNAKTKPREEQYNSTYRVVSVLTVLHQDWLNGKEYKCKVSNKALPAPIEKTISKAKGQPREPQVYTLPPSREEMTKNQVSLWCLVKGFYPSDIAVEWESNGQPENNYKTTPPVLDSDGSFFLYSKLTVDKSRWQQGNVFSCSVMHEALHNHYTQKSLSLSPGGGGGSGGGGSGGGGSGGGGSQVQLVQSGAEVKKPGASVKVSCKASGYTFAGFEMHWVRQAPGQGLEWMGAIDPKTGGTDYNQKFKDRVTMTRDTSISTAYMELSRLRSDDTAVYYCARDLGYFDVWGQGTLVTVSS chain 2: QVQLQQSGAELVRPGSSVKISCKASGYAFSSYWMNWVKQRPGQGLEWIGQIWPGDGDTNYNGKFKGKATLTADESSSTAYMQLSSLASEDSAVYFCARRETTTVGRYYYAMDYWGQGTTVTVSSASTKGPSVFPLAPSSKSTSGGTAALGCLVKDYFPEPVTVSWNSGALTSGVHTFPAVLQSSGLYSLSSVVTVPSSSLGTQTYICNVNHKPSNTKVDKKVEPKSCDKTHTCPPCPAPEAAGPSVFLFPPKPKDTLMISRTPEVTCVVVDVSHEDPEVKFNWYVDGVEVHNAKTKPREEQYNSTYRVVSVLTVLHQDWLNGKEYKCKVSNKALPAPIEKTISKAKGQPREPQVYTLPPSREEMTKNQVSLSCAVKGFYPSDIAVEWESNGQPENNYKTTPPVLDSDGSFFLVSKLTVDKSRWQQGNVFSCSVMHEALHNRFTQKSLSLSPGGGGGSGGGGSGGGGSGGGGSDIQMTQSPSSLSASVGDRVTITCRASQDIRSNLNWYQQKPGGAVKLLIYYTSRLHSGVPSRFSGSGSGTDYTLTISSLQPEDFATYFCQQSEKLPRTFGGGTKVEIR light: not shown", "values": [{"measurement": "binding result", "value": "binds"}]}
